This passage reports OD results from patent publication US6703362 (CYTOGEN, dated 2004).

The labels stand for the following.
T1: hPEPT1 receptor domain (human PEPT1, amino acid residues 391-571), His-tag fusion protein (human, UniProt P46059 391-571)
T1 construct: purified under denaturing conditions; also called recombinant hPEPT1; not shown: poly-histidine tag (pET vector) at the NH2-terminal end
T1 sequence: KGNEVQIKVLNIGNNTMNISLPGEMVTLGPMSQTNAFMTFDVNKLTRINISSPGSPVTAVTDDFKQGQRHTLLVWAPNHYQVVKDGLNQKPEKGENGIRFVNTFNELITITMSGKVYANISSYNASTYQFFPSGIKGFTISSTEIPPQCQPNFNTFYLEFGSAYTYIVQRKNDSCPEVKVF

T2: D2H receptor domain (human D2H transporter, amino acid residues 387-685), His-tag fusion protein (human, UniProt Q07837 387-685)
T2 construct: purified under denaturing conditions; also called recombinant D2H; not shown: poly-histidine tag (pET vector) at the NH2-terminal end
T2 sequence: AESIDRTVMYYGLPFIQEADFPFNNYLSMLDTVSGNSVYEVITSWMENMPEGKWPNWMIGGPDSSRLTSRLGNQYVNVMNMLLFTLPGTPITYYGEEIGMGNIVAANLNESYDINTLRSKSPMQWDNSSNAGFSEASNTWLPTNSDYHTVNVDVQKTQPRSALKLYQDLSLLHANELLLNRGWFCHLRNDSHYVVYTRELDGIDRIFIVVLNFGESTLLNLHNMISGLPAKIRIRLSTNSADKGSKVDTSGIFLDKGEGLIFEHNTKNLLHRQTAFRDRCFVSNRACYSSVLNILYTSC

B1: PAX15 (peptide)
peptide: SYCRVKGGGEGGHTDSNLARSGCGKVARTSRLQHINPRATPPSRAETVESCLAKPHTENSFTNVWKDDKTLDRYANYEGCLWNATGVVVCTGDETQCYGTWVPIGLAIPENEGGGSEGGGSEGGGSEGGGTKPPEYGDTPIPGYTYINPLDGTYPPGTEQNPANPNPSLEESQPLNTFMFQNNRFRNRQGALTVYTGTVTQGTDPVKTYYQYTPVSSKAMYDAYWNGKFRDCAFHSGFNEDPFVCEYQGQSSDLPQPPVNAGGGSGGGSGGGSEGGGSEGGGSEGGGSEGGGSGGGSGSGDFDYEKMANANKGAMTENADENALQSDAKGKLDSVATDYGAAIDGFIGDVSGLANGNGATGDFAGSNSQMAQVGDGDNSPLMNNFRQYLPSLPQSVECRPFVFSAGKPYEFSIDCDKINLFRGVFAFLLYVATFMYVFSTFANILRNKES
notes: Assayed as M13 phage clone displaying the insert
B2: PAX9 (peptide)
peptide: RWPSVGYKGNGSDTIDVHSNDASTKRSLIYNHRRPLFPAETVESCLAKPHTENSFTNVWKDDKTLDRYANYEGCLWNATGVVVCTGDETQCYGTWVPIGLAIPENEGGGSEGGGSEGGGSEGGGTKPPEYGDTPIPGYTYINPLDGTYPPGTEQNPANPNPSLEESQPLNTFMFQNNRFRNRQGALTVYTGTVTQGTDPVKTYYQYTPVSSKAMYDAYWNGKFRDCAFHSGFNEDPFVCEYQGQSSDLPQPPVNAGGGSGGGSGGGSEGGGSEGGGSEGGGSEGGGSGGGSGSGDFDYEKMANANKGAMTENADENALQSDAKGKLDSVATDYGAAIDGFIGDVSGLANGNGATGDFAGSNSQMAQVGDGDNSPLMNNFRQYLPSLPQSVECRPFVFSAGKPYEFSIDCDKINLFRGVFAFLLYVATFMYVFSTFANILRNKES
notes: as for B1
B3: PAX16 (peptide)
peptide: SWTRWGKHTHGGFVNKSPPGKNATSPYTDAQLPSDQGPPAETVESCLAKPHTENSFTNVWKDDKTLDRYANYEGCLWNATGVVVCTGDETQCYGTWVPIGLAIPENEGGGSEGGGSEGGGSEGGGTKPPEYGDTPIPGYTYINPLDGTYPPGTEQNPANPNPSLEESQPLNTFMFQNNRFRNRQGALTVYTGTVTQGTDPVKTYYQYTPVSSKAMYDAYWNGKFRDCAFHSGFNEDPFVCEYQGQSSDLPQPPVNAGGGSGGGSGGGSEGGGSEGGGSEGGGSEGGGSGGGSGSGDFDYEKMANANKGAMTENADENALQSDAKGKLDSVATDYGAAIDGFIGDVSGLANGNGATGDFAGSNSQMAQVGDGDNSPLMNNFRQYLPSLPQSVECRPFVFSAGKPYEFSIDCDKINLFRGVFAFLLYVATFMYVFSTFANILRNKES
notes: as for B1
B4: PAX14 (peptide)
peptide: RTFENDGLGVGRSIQKKSDRWYASHNIRSHFASMSPAGKAETVESCLAKPHTENSFTNVWKDDKTLDRYANYEGCLWNATGVVVCTGDETQCYGTWVPIGLAIPENEGGGSEGGGSEGGGSEGGGTKPPEYGDTPIPGYTYINPLDGTYPPGTEQNPANPNPSLEESQPLNTFMFQNNRFRNRQGALTVYTGTVTQGTDPVKTYYQYTPVSSKAMYDAYWNGKFRDCAFHSGFNEDPFVCEYQGQSSDLPQPPVNAGGGSGGGSGGGSEGGGSEGGGSEGGGSEGGGSGGGSGSGDFDYEKMANANKGAMTENADENALQSDAKGKLDSVATDYGAAIDGFIGDVSGLANGNGATGDFAGSNSQMAQVGDGDNSPLMNNFRQYLPSLPQSVECRPFVFSAGKPYEFSIDCDKINLFRGVFAFLLYVATFMYVFSTFANILRNKES
notes: as for B1
B5: DAB18 (peptide)
peptide: RSSANNCEWKSDWMRRACIARYANSSGPARAVDTKAAPAETVESCLAKPHTENSFTNVWKDDKTLDRYANYEGCLWNATGVVVCTGDETQCYGTWVPIGLAIPENEGGGSEGGGSEGGGSEGGGTKPPEYGDTPIPGYTYINPLDGTYPPGTEQNPANPNPSLEESQPLNTFMFQNNRFRNRQGALTVYTGTVTQGTDPVKTYYQYTPVSSKAMYDAYWNGKFRDCAFHSGFNEDPFVCEYQGQSSDLPQPPVNAGGGSGGGSGGGSEGGGSEGGGSEGGGSEGGGSGGGSGSGDFDYEKMANANKGAMTENADENALQSDAKGKLDSVATDYGAAIDGFIGDVSGLANGNGATGDFAGSNSQMAQVGDGDNSPLMNNFRQYLPSLPQSVECRPFVFSAGKPYEFSIDCDKINLFRGVFAFLLYVATFMYVFSTFANILRNKES
notes: as for B1
B6: DAB3 (peptide)
peptide: RWCGAELCNSVTKKFRPGWRDHANPSTHHRTPPPSQSSPAETVESCLAKPHTENSFTNVWKDDKTLDRYANYEGCLWNATGVVVCTGDETQCYGTWVPIGLAIPENEGGGSEGGGSEGGGSEGGGTKPPEYGDTPIPGYTYINPLDGTYPPGTEQNPANPNPSLEESQPLNTFMFQNNRFRNRQGALTVYTGTVTQGTDPVKTYYQYTPVSSKAMYDAYWNGKFRDCAFHSGFNEDPFVCEYQGQSSDLPQPPVNAGGGSGGGSGGGSEGGGSEGGGSEGGGSEGGGSGGGSGSGDFDYEKMANANKGAMTENADENALQSDAKGKLDSVATDYGAAIDGFIGDVSGLANGNGATGDFAGSNSQMAQVGDGDNSPLMNNFRQYLPSLPQSVECRPFVFSAGKPYEFSIDCDKINLFRGVFAFLLYVATFMYVFSTFANILRNKES
notes: as for B1
B7: DAB7 (peptide)
peptide: RWCGADDPCGASRWRGGNSLFGCGLRCSAAQSTPSGRIHSTSTSAETVESCLAKPHTENSFTNVWKDDKTLDRYANYEGCLWNATGVVVCTGDETQCYGTWVPIGLAIPENEGGGSEGGGSEGGGSEGGGTKPPEYGDTPIPGYTYINPLDGTYPPGTEQNPANPNPSLEESQPLNTFMFQNNRFRNRQGALTVYTGTVTQGTDPVKTYYQYTPVSSKAMYDAYWNGKFRDCAFHSGFNEDPFVCEYQGQSSDLPQPPVNAGGGSGGGSGGGSEGGGSEGGGSEGGGSEGGGSGGGSGSGDFDYEKMANANKGAMTENADENALQSDAKGKLDSVATDYGAAIDGFIGDVSGLANGNGATGDFAGSNSQMAQVGDGDNSPLMNNFRQYLPSLPQSVECRPFVFSAGKPYEFSIDCDKINLFRGVFAFLLYVATFMYVFSTFANILRNKES
notes: as for B1
B8: S22 (peptide)
peptide: SSSSDWGGVPGKVVRERFKGRGCGISITSVLTGKPNPCPEPKAAAETVESCLAKPHTENSFTNVWKDDKTLDRYANYEGCLWNATGVVVCTGDETQCYGTWVPIGLAIPENEGGGSEGGGSEGGGSEGGGTKPPEYGDTPIPGYTYINPLDGTYPPGTEQNPANPNPSLEESQPLNTFMFQNNRFRNRQGALTVYTGTVTQGTDPVKTYYQYTPVSSKAMYDAYWNGKFRDCAFHSGFNEDPFVCEYQGQSSDLPQPPVNAGGGSGGGSGGGSEGGGSEGGGSEGGGSEGGGSGGGSGSGDFDYEKMANANKGAMTENADENALQSDAKGKLDSVATDYGAAIDGFIGDVSGLANGNGATGDFAGSNSQMAQVGDGDNSPLMNNFRQYLPSLPQSVECRPFVFSAGKPYEFSIDCDKINLFRGVFAFLLYVATFMYVFSTFANILRNKES
notes: as for B1
B9: S21 (peptide)
peptide: SPRSFWPVVSRHESFGISNYLGCGYRTCISGTMTKSSPIYPRHSAETVESCLAKPHTENSFTNVWKDDKTLDRYANYEGCLWNATGVVVCTGDETQCYGTWVPIGLAIPENEGGGSEGGGSEGGGSEGGGTKPPEYGDTPIPGYTYINPLDGTYPPGTEQNPANPNPSLEESQPLNTFMFQNNRFRNRQGALTVYTGTVTQGTDPVKTYYQYTPVSSKAMYDAYWNGKFRDCAFHSGFNEDPFVCEYQGQSSDLPQPPVNAGGGSGGGSGGGSEGGGSEGGGSEGGGSEGGGSGGGSGSGDFDYEKMANANKGAMTENADENALQSDAKGKLDSVATDYGAAIDGFIGDVSGLANGNGATGDFAGSNSQMAQVGDGDNSPLMNNFRQYLPSLPQSVECRPFVFSAGKPYEFSIDCDKINLFRGVFAFLLYVATFMYVFSTFANILRNKES
notes: as for B1
B10: S15 (peptide)
peptide: RSGAYESPDGRGGRSYVGGGGGCGNIGRKHNLWGLRTASPACWDAETVESCLAKPHTENSFTNVWKDDKTLDRYANYEGCLWNATGVVVCTGDETQCYGTWVPIGLAIPENEGGGSEGGGSEGGGSEGGGTKPPEYGDTPIPGYTYINPLDGTYPPGTEQNPANPNPSLEESQPLNTFMFQNNRFRNRQGALTVYTGTVTQGTDPVKTYYQYTPVSSKAMYDAYWNGKFRDCAFHSGFNEDPFVCEYQGQSSDLPQPPVNAGGGSGGGSGGGSEGGGSEGGGSEGGGSEGGGSGGGSGSGDFDYEKMANANKGAMTENADENALQSDAKGKLDSVATDYGAAIDGFIGDVSGLANGNGATGDFAGSNSQMAQVGDGDNSPLMNNFRQYLPSLPQSVECRPFVFSAGKPYEFSIDCDKINLFRGVFAFLLYVATFMYVFSTFANILRNKES
notes: as for B1

T3 sequence (P14410 272-667, one chain of several): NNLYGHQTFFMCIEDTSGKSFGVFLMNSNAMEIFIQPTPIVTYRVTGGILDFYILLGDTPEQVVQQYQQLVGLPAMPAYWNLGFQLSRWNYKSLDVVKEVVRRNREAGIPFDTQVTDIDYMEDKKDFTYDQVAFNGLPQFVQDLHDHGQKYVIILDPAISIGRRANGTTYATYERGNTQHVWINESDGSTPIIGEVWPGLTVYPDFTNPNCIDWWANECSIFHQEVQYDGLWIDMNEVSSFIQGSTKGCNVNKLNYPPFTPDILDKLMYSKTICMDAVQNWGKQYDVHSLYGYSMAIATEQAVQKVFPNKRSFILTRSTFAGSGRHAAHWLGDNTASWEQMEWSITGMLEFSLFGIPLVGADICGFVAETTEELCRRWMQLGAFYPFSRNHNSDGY

The target of the first assay is T1, hPEPT1 receptor domain (human PEPT1, …). Kind of assay: phage ELISA, plate coated with hPEPT1 domain. How it is done: (§1) 6.6. Receptor ELISA Procedure 96 well plates were coated overnight with GIT receptor, BSA and, optionally, IDE (insulin degrading enzyme, an irrelevant His-fusion protein)or hTF. The plates were blocked for one hour with 0.5% BSA-PBS. After clarification, the amplified phage were diluted 1:100 in […] plus 0.05% Tween 20 in PBS and added to the plates. Following incubation of the plates on a rotator for 1 to 2 hours, the plates were washed 5 times with 1% BSA plus 0.05% Tween 20 in PBS. […] After the plates were washed 5 times, as described above, TMB substrate was added to the wells. The plates were read at 650 nm absorbance.
On the technique in general: An ELISA detects its analyte on a solid surface through an enzyme-linked reagent.
The molecule B1 came in with an OD of 0.301 OD.

With B2, the OD came to 0.312 OD.

With B3, the OD stood at 0.648 OD.

On to B4, for which the OD amounted to 1.1 OD.

A further assay addresses T2, D2H receptor domain (human D2H …). In words: phage ELISA, plate coated with D2H domain. As for the experimental part:
as §1
In turn, B5 gave an OD of 0.467 OD.

Molecule B6 had an OD of 0.406 OD.

The molecule B7 showed an OD of 0.702 OD.

Another assay concerns the target T3, hSI receptor domain (human sucrase-isomaltase complex, amino acid residues 272-667), His-tag fusion protein (human, UniProt P14410 272-667).
T3 construct: also called hS1; recombinant hSI; not shown: poly-histidine tag (pET vector) at the NH2-terminal end
Kind of assay: phage ELISA, plate coated with hSI domain. How it is done: as §1
With B8, the OD was 0.399 OD.

B9 came in with an OD of 0.845 OD.

In turn, B10 displayed an OD of 0.478 OD.
